Patent publication US20240218393, “VECTORS ENCODING GENE EDITING SYSTEMS AND USES THEREOF” (Mammoth Biosciences, Inc., published 2024)

B1: sgRNA SEQ 204 ; target of sgRNA SEQ 204 (protospacer) (ssRNA ; dsDNA)
RNA: UGGGGCAGUUGGUUGCCCUUAGCCUGAGGCAUUUAUUGCACUCGGGAAGUACCAUUUCUCAGAAAUGGUACAUCCAACCGUGCUGUUUCCUCCCCACG
DNA 1: CGTGCTGTTTCCTCCCCACG
DNA 2: CGTGGGGAGGAAACAGCACG
B2: sgRNA SEQ 206 ; target of sgRNA SEQ 206 (protospacer) (ssRNA ; dsDNA)
RNA: UGGGGCAGUUGGUUGCCCUUAGCCUGAGGCAUUUAUUGCACUCGGGAAGUACCAUUUCUCAGAAAUGGUACAUCCAACGGGGGCGGGGGGGAGAAAAA
DNA 1: GGGGGCGGGGGGGAGAAAAA
DNA 2: TTTTTCTCCCCCCCGCCCCC
B3: sgRNA SEQ 202 ; target of sgRNA SEQ 202 (protospacer) (ssRNA ; dsDNA)
RNA: UGGGGCAGUUGGUUGCCCUUAGCCUGAGGCAUUUAUUGCACUCGGGAAGUACCAUUUCUCAGAAAUGGUACAUCCAACUCUAGGCGCCCGCUAAGUUC
DNA 1: TCTAGGCGCCCGCTAAGTTC
DNA 2: GAACTTAGCGGGCGCCTAGA

Target: T1, CasM.19952
T1 chain: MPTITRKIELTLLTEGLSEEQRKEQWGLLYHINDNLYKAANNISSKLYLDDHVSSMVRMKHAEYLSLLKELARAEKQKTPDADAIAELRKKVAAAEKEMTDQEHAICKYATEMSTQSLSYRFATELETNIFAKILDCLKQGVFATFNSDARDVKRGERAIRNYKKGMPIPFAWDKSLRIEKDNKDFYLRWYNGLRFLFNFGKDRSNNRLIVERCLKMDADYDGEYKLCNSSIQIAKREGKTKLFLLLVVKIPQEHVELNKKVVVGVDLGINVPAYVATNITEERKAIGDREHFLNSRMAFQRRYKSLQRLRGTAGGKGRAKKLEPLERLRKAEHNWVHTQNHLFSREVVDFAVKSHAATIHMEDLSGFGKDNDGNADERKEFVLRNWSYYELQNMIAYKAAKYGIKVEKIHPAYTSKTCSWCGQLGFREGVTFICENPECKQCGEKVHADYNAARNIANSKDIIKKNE
Experiment: cell_activity; HEK293T, plasmid lipofection; PAM TCG or KYG (Table 1.1)
Details: tags: expressed from plasmid or scAAV
Protocol: CasM.19952 was tested for its ability to produce indels in HEK293T cells. Briefly, a plasmid encoding CasM.19952 and a guide RNA was delivered by lipofection to HEK293T cells. This was performed for a variety of guide RNAs targeting up to twenty-four loci adjacent to biochemically determined PAM sequences. Indels were detected by next generation sequencing of PCR amplicons at the targeted loci and indel percentage was calculated as the fraction of sequencing reads containing insertions or deletions relative to an unedited reference sequence. Sequencing libraries with less than 20% of reads aligning to the reference sequence were excluded from the analysis for quality control purposes. “No plasmid” and SpyCas9 were included as negative and positive controls, respectively. […] TABLE 8 describes the sequences of the single guide RNAs tested that provided the greatest percent of reads with indels. Non-bold, non-italicized, capital letters indicate the tracrRNA region of the guide RNA; italicized letters indicate a linker; bold letters indicate the repeat sequence; and the lowercase letters represent the spacer sequence.

Row | Binder | activity [% indel reads]
1 | B1 | 19.4
2 | B2 | 18.4
3 | B3 | 13.5
